Biological target: SARS-CoV-2 Omicron BA.2 spike extracellular domain trimer (SARS-CoV-2 (Omicron BA.2)) (UniProt P0DTC2)

Row | Substance | Kd
1 | JMB2002 Fab | 2.6 nM
2 | JMB2002 IgG (antibody) | 0.3 nM
